Results: the DeepSol protein solubility set

Test: soluble on expression in E. coli; label from the status in PepcDB or PDB records

Sequence	soluble on expression in E. coli
MSLIITGVDVHVVNLPLTSPFRSSFETKTGETRTVVRVTTDDGHVGWGETMWGSPVARLTEQLSSSLIGKSPFALEEFHATHTMVPFFYGYIGYAALAGLDVACWDLMGKITGRPLTDLIGGRVRDTVPITALITRADAPDAPPADLPVALAEHAAKVVAIGGFTAVKLKGTKDVDGDVKIMRALRAVLPDVELRVDPNAAWSVPESIRAGLRMEELDLEYLEDPCWGIDGMARVREKIRIPLCTNMCVVAFEDFAPAMRLGAVDVIHGDVYKWGGEGHHHHHH	not soluble
MAHHHHHHMSPVLVPTACEDWSLNIDDESAKRFWWNNTYSITLWEETLNIEQQAEKITDGDVWSKFIDLQLRCAFKICSICHSPEGNADMKICCYCGNTVHENCSEPAAPEQIMWKPANLAYVEHMRACFQCQAVNYKEPLAPQSPSEWDNARRAAKRALTISDEYPPATVERIQKLLQRAETTSNDAVLLSELKSLVQSYFQSPQSLQFLRKERVASKGGGIGVVAARKIPAFSIIGVYPGYLDFMSGEQAKCGRPVPKYALMEYNCANYFNEVFVELQTTFTPFINEPNVDEKSNCAWIQEPHRKNGRLSVICVRDIQEGEELTIGYGPIYPRTYPYCYDAYACHQIEGHTTHPCYSLWHWPTLQEADARFVCHIGYIERDDCYVLWKNET	soluble
QGDIGIDNLRNFYTKKDFVDLKDVKDNDTPIANQLQFSNESYDLISESKDFNKFSNFKGKKLDVFGISYNGQSNTKYIYGGVTATNEYLDKSRNIPINIWINGNHKTISTNKVSTNKKFVTAQEIDVKLRKYLQEEYNIYGHNGTKKGEEYGHKSKFYSGFNIGKVTFHLNNNDTFSYDLFYTGDDGLPKSFLKIYEDNKTVESEKFHLDVDISYKA	soluble
GPGSMTTLVLCDGSEGSLRSIEVACAGNATPTSSMPSQEGSLLLLHVWDTPATRTSVLHPSVGAEGMYTPRRSVSSAAAAAAQTSADAGGHGGSSMPCADVLTTTLQYIHTNKYLKNKLHYTVETTCASTVFARDNTDHSVLSEAGAAPAGGTAASQAAHGRAGQGQKRASCSAGGAGSARRRSDRRPSQRQIDTAAEISAGSSNNTGDGTAPERQEAPVSIPENEKRAMAVVKYATARAAHHHVTAVLLGVGQRQDGKVCTVGAVAQGVLLELRSLYPLYYVKKDGVKWRPALSTTTTTTAATPRRFTIVVAVPADARWESATAAETRSGNEEAAAQTTASIETPSVAPPQVPIHVQEAVAATVQYVQTRCMRLHAALQVEQITFAVIATSSSQDGNSITEPDRGENGGHVAAGPDASGGKDGSTWISPLEAYKRHLESLPFVECKSIPPANAAAPLLSPVNRINPAAVGETGGIEQHLPEDGAAMMCVEGSATGAPAPRGAASPVAVCVLKASKKNPLLSLDSEPEVALPQIIKQVGSLKPEVLVMPKSLVPESLQLALLATSNPHCIVLPF	soluble
PVNQVQSSVSWPQNGSLNSVSAPLMSYTPISFDAKIPVASVDKLRKDQDLILGTLPANSEDAGARGLFVRANDDGLQITSHGELVLDLSKRELAQLPADATIAISATEDETTAGIEGDDSTTETVERDVRPIIMGIYTELESNAAADLLNAGLNAHVEINSRFTSSPTLAKYAS	soluble
MSLRTTASEFDNFGYGVSDSLGMRDHVSARDLFVQKFRGKENEMLLCAFDGKHGATNQGHRISLVAKNMFVRNFTKELDEIKNDDEIENALRKAFLNFNKEINGILTAKKNKSFTPVPNMSKEALELNLVDDGNAGCTVSVIYIKDKKLYSANIGDIEALLCRNNGDQFLLTEKHDPTNREEFERIRASGGYVSGGGELDGQLSVSRGVGFFNFLPHTHCGPTIRRFKITNDDDMIILGSKQLWDFISYESAVDIIRKDKNDPMVAAQKLRDFAICYGATDKICVIVLTFGNREGHHHHHH	soluble
QSKTATVFLHGYNGGAYSTNYLIRKAEKAGAAQKALVVHVYKNGVMAFKGYWQKSIKNPMVQVVFQDNHASQKAQIYWLHQVLVQLKAKYGVKAYNAVGHSLGANDIVNQALKYGHDKRLPTLNKIVTIGGPFDGLTGFLSTQTEATVRRLDVKPSRFTKHFSEMLKYRHNFPDNVKLLNVYGDTNTGYNNDGFVGVASARSIRYLLRGKLTQYQEAFYSGEQAAHCALNQNPSVAHKMIAFLW	not soluble
